Experimental data as given in paper PMC12013497.

Target: wild-type Bacteroides fragilis glutamate decarboxylase (BfGADWT) (Bacteroides fragilis)
Assay: SEC

“wild-type Bacteroides fragilis glutamate decarboxylase (BfGADWT) (enzyme)” gave a stoichiometry N of 6.
